Where a chain is given by its changes, count along the chain named. Names and notes keep the numbering of the source. Values joined by “and” are separate entries in the source; they are usually repeats but may differ in a detail not shown here. Identical values can stand only once.
T1: Escherichia coli MG1655 YqhD, native (wild type), SEQ ID NO: 56 (Escherichia coli, UniProt Q46856)
T1 construct: made in house; host or cells: E. coli MG1655 ΔyqhD::Km carrying pTRC99A-yqhD
T1 sequence (Q46856 1-387): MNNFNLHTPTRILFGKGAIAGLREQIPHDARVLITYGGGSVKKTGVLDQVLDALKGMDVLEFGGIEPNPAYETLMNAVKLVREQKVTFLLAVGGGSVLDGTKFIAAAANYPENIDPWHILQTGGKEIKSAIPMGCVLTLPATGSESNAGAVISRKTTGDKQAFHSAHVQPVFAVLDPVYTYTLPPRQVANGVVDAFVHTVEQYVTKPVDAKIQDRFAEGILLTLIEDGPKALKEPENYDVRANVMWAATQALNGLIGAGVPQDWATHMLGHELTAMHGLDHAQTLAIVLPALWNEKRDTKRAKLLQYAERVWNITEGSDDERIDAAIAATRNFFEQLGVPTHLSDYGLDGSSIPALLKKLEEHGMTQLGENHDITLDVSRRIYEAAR

T2: E. coli YqhD variant YqhD*(G149E) (Escherichia coli, UniProt Q46856, G149E)
T2 construct: made in house; host or cells: E. coli MG1655 ΔyqhD::Km carrying pTRC99A-yqhD*(G149E)
T2 sequence (Q46856 1-387 G149E): T1 sequence (Q46856 1-387) with G149E

T3: E. coli YqhD variant YqhD*(G149S A286T) (Escherichia coli, UniProt Q46856, A286T/G149S)
T3 construct: made in house; host or cells: E. coli MG1655 ΔyqhD::Km carrying pTRC99A-yqhD*(G149S)(A286T)
T3 sequence (Q46856 1-387 G149S/A286T): T1 sequence (Q46856 1-387) with G149S, A286T

B1: E. coli YqhD variant YqhD*(G149S A286T) (Escherichia coli K-12; A286T/G149S) (protein)
chain: T1 sequence (Q46856 1-387) with G149S, A286T
B2: Escherichia coli MG1655 YqhD, native (wild type), SEQ ID NO: 56 (Escherichia coli K-12) (protein)
chain: T1 sequence (Q46856 1-387)
B3: E. coli YqhD variant YqhD*(G149S) (Escherichia coli K-12; G149S) (protein)
chain: T1 sequence (Q46856 1-387) with G149S
B4: E. coli YqhD variant YqhD*(G149E) (Escherichia coli K-12; G149E) (protein)
chain: T1 sequence (Q46856 1-387) with G149E

Tests used:
[1] = test system: YqhD (purified); details: furfural reductase study, Miller et al (2009); read-out: Km value for NADPH; cited from earlier work
[2] = test system: YqhD single mutant Q202A; details: versus parent YqhD, Li et al, 2008; cited from earlier work
[3] = test system: YqhD double mutant D99Q N147H; details: versus parent YqhD, Li et al, 2008; cited from earlier work
[4] = target: T1, Escherichia coli MG1655 YqhD, native (wild type), SEQ ID NO: 56; experiment: inhibition by NADP+, native YqhD; format: biochemical, E. coli
Protocol: (§1) Methylglyoxal reductase activity was assayed by measuring the initial rate of NADPH oxidation with a spectrophotometer at a wavelength of 340 nm and at a constant temperature of 37° C. The reaction mixture using methylglyoxal as substrate was carried out in 20 mM Hepes pH 7.5, 0.1 mM Zinc sulphate, 0.2 mM NADPH, 0.6 μg of purified enzyme in a final volume of 1 ml. The reaction mixture was incubated for 5 min at 37° C. and then the reaction was initiated by the addition of the substrate methylglyoxal at a final concentration of 10 mM. Control assay (blank), lacking the substrate was run in parallel and the value measured for the control was subtracted to the value measured for the assay to take into account non-specific oxidation of NADPH.
(§2) The NADP+ inhibition constant for three purified enzymes (yqhD, yqhD*(G149E) and yqhD*(G149S A286T)) were determined in the conditions described for the activity assay, excepted for the concentration of methylglyoxal that was increased to 20 mM. […] Five concentrations of the inhibitor NADP+ were used (0-0.05-0.1-0.2-0.5 mM) and the kinetics were recorded for each condition of inhibition. The NADP+ inhibition constant (Ki) of each protein was determined with the module enzyme kinetic from the software Sigma Plot (Systat Software Inc, San Jose, Calif.). […]

[5] = target: T2, E. coli YqhD variant YqhD*(G149E); experiment: inhibition by NADP+, YqhD*(G149E); format: biochemical
Protocol: as §1, §2

[6] = target: T3, E. coli YqhD variant YqhD*(G149S A286T); experiment: inhibition by NADP+, YqhD*(G149S A286T); format: biochemical
Protocol: as §1, §2

[7] = Methylglyoxal reductase activity assay, kinetics of purified YqhD enzymes toward co-factor NADPH; format: biochemical, E. coli
Protocol: as §1
(§3) One unit of enzyme activity was defined as the amount of enzyme that consumed 1 μmol substrate per minute under the conditions of the assay. Specific enzyme activity was expressed as units per mg of protein.
(§4) Kinetic constants (Km, kcat and kcat/Km) for the four purified enzymes (yqhD, yqhD*(G149E), yqhD*(G149S) and yqhD*(G149S A286T)) toward methylglyoxal were determined using the activity assay previously described. In this case the reaction was started by addition of the purified enzyme. Nine NADPH concentrations between 6 μM and 300 μM were analysed for each enzyme. For all kinetics, initial velocity was determined in triplicate for all co-factor concentrations.
Kinetic constants (Km and Vmax) of each protein were determined with the module enzyme kinetics from the software Sigma Plot (Systat Software Inc, San Jose, Calif.). […] The different kinetic parameters of four YqhD enzymes were compiled in Table 7.

[8] = Methylglyoxal reductase activity assay, kinetics of purified YqhD enzymes toward methylglyoxal; format: biochemical, E. coli; details: for Kinetic parameters (Km, kcat, kcat/Km) compared to the native protein / Specific activity compared to that of YqhD: in words
Protocol: as §1, §3
as §4, with “Seven methylglyoxal” for “Nine NADPH”, “1.3 mM” for “6 μM”, “30 mM” for “300 μM”, “substrate” for “co-factor”
Kinetic constants (Km and Vmax) of each protein were determined with the module enzyme kinetics from the software Sigma Plot (Systat Software Inc, San Jose, Calif.). […] The different kinetic parameters of four YqhD enzymes were compiled in Table 6.

[9] = substrate: CC(=O)C=O; experiment: purified protein, by the assay type; details: other: methylglyoxal 1.3-30 mM, 0.2 mM NADPH, pH 7.5, 37° C.
Protocol: Kinetic constants (Km, kcat and kcat/Km) for the four purified enzymes (yqhD, yqhD*(G149E), yqhD*(G149S) and yqhD*(G149S A286T)) toward methylglyoxal were determined using the activity assay previously described. In this case the reaction was started by addition of the purified enzyme. Seven methylglyoxal concentrations between 1.3 mM and 30 mM were analysed for each enzyme. For all kinetics, initial velocity was determined in triplicate for all substrate concentrations.

[10] = substrate: NC(=O)C1=CN([C@@H]2O[C@H](COP(=O)(O)OP(=O)(O)OC[C@H]3O[C@@H](n4cnc5c(N)ncnc54)[C@H](OP(=O)(O)O)[C@@H]3O)[C@@H](O)[C@H]2O)C=CC1; experiment: purified protein, by the assay type; details: other: NADPH 6-300 μM, 10 mM methylglyoxal, pH 7.5, 37° C.
[11] = Inhibition of the YqhD enzymes by NADP+ (competitive inhibition model); format: biochemical, E. coli; details: NADP+ inhibition experiment, 20 mM methylglyoxal
Protocol: as §1
The NADP+ inhibition constant for three purified enzymes (yqhD, yqhD*(G149E) and yqhD*(G149S A286T)) were determined in the conditions described for the activity assay, excepted for the concentration of methylglyoxal that was increased to 20 mM. Enzyme kinetics with regards to NADPH were realised with increasing concentration of NADPH between 50 and 200 μM. Five concentrations of the inhibitor NADP+ were used (0-0.05-0.1-0.2-0.5 mM) and the kinetics were recorded for each condition of inhibition. The NADP+ inhibition constant (Ki) of each protein was determined with the module enzyme kinetic from the software Sigma Plot (Systat Software Inc, San Jose, Calif.). A model of competitive inhibition was fitted by the software.

Row | Molecule | Specific activity [7] [µmol/min/mg] | Specific activity [8] [µmol/min/mg] | Km [9] [µM] | kcat [9] [s⁻¹] | kcat/Km [9] [M⁻¹ s⁻¹] | Km [10] [µM] | kcat [10] [s⁻¹] | kcat/Km [10] | Specific activity [11] [µmol/min/mg] | other results
1 | NC(=O)C1=CN([C@@H]2O[C@H](COP(=O)(O)OP(=O)(O)OC[C@H]3O[C@@H](n4cnc5c(N)ncnc54)[C@H](OP(=O)(O)O)[C@@H]3O)[C@@H](O)[C@H]2O)C=CC1 [NADPH] | – | – | – | – | – | – | – | – | – | Km [1]: 8 µM
2 | O=CCCO [3-HPA, 3-hydroxypropionaldehyde] | – | – | – | – | – | – | – | – | – | affinity (Km) for 3-HPA [2]: improved affinity (lower Km); catalytic efficiency (Kcat/Km) for 3-HPA [2]: improved catalytic efficiency; affinity (Km) for 3-HPA [3]: improved affinity (lower Km); catalytic efficiency (Kcat/Km) for 3-HPA [3]: improved catalytic efficiency
3 | NC(=O)c1ccc[n+]([C@@H]2O[C@H](COP(=O)([O-])OP(=O)(O)OC[C@H]3O[C@@H](n4cnc5c(N)ncnc54)[C@H](OP(=O)(O)O)[C@@H]3O)[C@@H](O)[C@H]2O)c1 [NADP+] | – | – | – | – | – | – | – | – | – | Ki [4]: 68 µM; Ki [5]: 28 ± 5 µM; Ki [6]: 16 ± 2.5 µM
4 | B1 | 3.17 ± 0.02 | 2.69 ± 0.10 | 3280 ± 380 | 1.89 ± 0.07 | 577 ± 88 | 20 ± 2.2 | 2.2 ± 0.1 | 1.22 E+05 M−1s−1 and 1.13E+05 ± 1.3E+04 M−1s−1 | 5.25 ± 0.183 | Specific activity as share of the specific activity of YqhD [8]: 69%; Kinetic parameters (Km, kcat, kcat/Km) compared to the native protein [8]: identical to the native protein
5 | B2 | 2.99 ± 0.1 | 3.91 ± 0.11 | 4810 ± 410 | 2.74 ± 0.08 | 570 ± 65 | 32 ± 4.2 | 2.1 ± 0.1 | 66000 ± 11000 M⁻¹ s⁻¹ | 3.63 ± 0.284 | –
6 | B3 | 3.78 ± 0.15 | 3.80 ± 0.12 | 3370 ± 340 | 2.67 ± 0.09 | 792 ± 105 | 22 ± 3.7 | 2.7 ± 0.1 | 122000 ± 25000 M⁻¹ s⁻¹ | – | Kinetic parameters (Km, kcat, kcat/Km) compared to the native protein [8]: identical to the native protein; Specific activity compared to that of YqhD [8]: similar
7 | B4 | 4.86 ± 0.08 | 7.65 ± 0.31 | 7800 ± 790 | 5.38 ± 0.21 | 689 ± 98 | 28 ± 1.8 | 3.4 ± 0.1 | 122000 ± 9800 M⁻¹ s⁻¹ | 5.53 ± 0.292 | Specific activity compared to that of YqhD [8]: almost doubled
